Consider 1 molecule from patent CN115368455A.

In the assay the target is SIRPg (UniProt Q9P1W8). The assay is described as follows: SPR (BIAcore X-100); ratio of the affinity for SIRPa to that for SIRPg. A general note: Surface plasmon resonance follows binding to a sensor surface in real time, without labels.
Sequence of UniProt Q9P1W8 (Q9P1W8 29-360 limits assumed): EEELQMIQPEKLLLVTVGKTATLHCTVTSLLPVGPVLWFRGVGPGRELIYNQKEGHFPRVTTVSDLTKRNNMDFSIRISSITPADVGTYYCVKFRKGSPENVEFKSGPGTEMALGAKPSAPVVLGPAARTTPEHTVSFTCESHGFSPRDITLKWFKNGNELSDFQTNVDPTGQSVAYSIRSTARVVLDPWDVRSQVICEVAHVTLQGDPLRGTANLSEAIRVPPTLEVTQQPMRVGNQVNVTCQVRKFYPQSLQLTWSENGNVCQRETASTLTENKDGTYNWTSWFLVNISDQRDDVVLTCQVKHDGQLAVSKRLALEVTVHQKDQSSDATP

B1: KWAR23 (antibody, from another filing, V domains shown)
VH: EVQLQQSGAELVKPGASVKLSCTASGFNIKDYYIHWVQQRTEQGLEWIGRIDPEDGETKYAPKFQDKATITADTSSNTAYLHLSSLTSEDTAVYYCARWGAYWGQGTLVTVSS
VL: QIVLTQSPAIMSASPGEKVTLTCSASSSVSSSYLYWYQQKPGSSPKLWIYSTSNLASGVPARFSGSGSGTSYSLTISSMEAEDAASYFCHQWSSYPRTFGAGTKLELK
For the molecule B1, the SIRPa/SIRPg亲和力比值 is under 1.
